Assay results: PMC8248410 (Chemmedchem, 2021)
The star is where a group is joined. Biotin = O=C1N[C@H]2[C@H](CS[C@H]2CCCCC(=O)*)N1; Ahx = NCCCCCC(=O)O

Molecular target: gp120_(HxBc2) (HIV-1 (HxBc2), UniProt P04578 33-511)
Test: cell-based or functional assay

Binder	IC50 of inhibition of HIV-1 NL4-3 infection of CEMx174 SEAP reporter cells [nM]
{Biotin-Ahx}-LCDCPNGPWVWVPAFCQAVG-OH (cysteine pairing not given here) [P6‐2(Bio)]	1240
Ac-LCDCPNGPWVWVPAFCQAVG-OH (cysteine pairing not given here) [P6‐2]	2630
